Measurements taken from patent publication US20250361274A1, “PEPTIDE AND PEPTIDE-CONTAINING AGENT” (PEPTIDREAM INC., priority 2022, published 2025).
Numbered stars: 1 amine (or outer) side, 2 acyl side, 3 side chain; on linkers, the order of the positions; unused ones are H or OH. Square brackets hold non-standard residues; d marks the D form. Ends that are not written are not given here. KCOpipzaa = N6-(4-(carboxymethyl)piperazine-1-carbonyl)-L-lysine, O=C(NCCCC[C@H](N[*:1])C(=O)[*:2])N1CCN(CC(=O)[*:3])CC1; F4aao = (S)-2-amino-3-(4-(carboxymethoxy)phenyl)propanoic acid, O=C([C@H](Cc1ccc(OCC(=O)[*:3])cc1)N[*:1])[*:2]; 3Pal(6-Ph) = N[C@@H](Cc1ccc(-c2ccccc2)nc1)C(=O)O; Phe(4-COOH) = N[C@@H](Cc1ccc(C(=O)O)cc1)C(=O)O; Bip = N[C@@H](Cc1ccc(-c2ccccc2)cc1)C(=O)O; Abu(4,4,4-F3) = N[C@@H](CC(F)(F)F)C(=O)O; Phe(4-F) = N[C@@H](Cc1ccc(F)cc1)C(=O)O; hTyr = N[C@@H](CCc1ccc(O)cc1)C(=O)O; Hyp = O=C(O)[C@@H]1C[C@@H](O)CN1; 4Pal = N[C@@H](Cc1ccncc1)C(=O)O; Gly(cPr) = N[C@H](C(=O)O)C1CC1; βAla = NCCC(=O)O

Legend:
BMP7 = target: T1, BMP7 (Homo sapiens, UniProt P18075); test: BMP7 signal transduction inhibitory activity: SMAD1 phosphorylation by BMP7 stimulus, A549 cells; format: cell-based; conditions: class symbols; for aLIZA BMP7 (10 nM) % Inh: SMAD1 phosphorylation by BMP7 stimulus; for aLIZA BMP7 (10 nM) % inh: BMP7 10 nM stimulus
T1 sequence (P18075 293-431): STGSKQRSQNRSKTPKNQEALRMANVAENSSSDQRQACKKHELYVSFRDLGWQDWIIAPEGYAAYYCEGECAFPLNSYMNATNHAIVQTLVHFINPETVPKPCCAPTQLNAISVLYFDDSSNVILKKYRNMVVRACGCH
Summary of the method: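 A549 cells were stimulated with 10 nM BMP7, and peptide inhibition of signalling was measured as SMAD1 phosphorylation. Peptides were tested at three concentrations, in sets ranging from 1–100 nM to 100–1,000 nM, or as eight-point 1/3 dilution series starting at 100 nM or 1,000 nM.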

BMP4 = target: T2, BMP4 (Homo sapiens, UniProt P12644); test: BMP4 signal transduction inhibitory activity: SMAD1 phosphorylation by BMP4 stimulus, AlphaLISA SureFire, A549 cells; format: cell-based; conditions: peptide conc. in assay 0.02, 0.2, 2 nM, class symbols; for aLIZA BMP4 (0.2 nM) % Inh: SMAD1 phosphorylation by BMP4 stimulus; for aLIZA BMP4 (0.2 nM) % inh: BMP4 0.2 nM stimulus
T2 sequence (P12644 293-408): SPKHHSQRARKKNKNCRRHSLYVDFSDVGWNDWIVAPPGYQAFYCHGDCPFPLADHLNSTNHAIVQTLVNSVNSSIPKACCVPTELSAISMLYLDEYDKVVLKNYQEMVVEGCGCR

[1] = peptide conc. in assay 10, 100, 1000 nM
[2] = peptide conc. in assay 100, 300, 1000 nM

Substance | aLIZA BMP7 (10 nM) % Inh (BMP7; [1]) | aLIZA BMP4 (0.2 nM) % Inh (BMP4) | aLIZA BMP7 (10 nM) % inh (BMP7; [1]) | aLIZA BMP4 (0.2 nM) % inh (BMP4) | aLIZA BMP7 (10 nM) % inh (BMP7; [2])
253 (ERVYVSR[3Pal(6-Ph)]SYV[Bip][4Pal][Phe(4-COOH)][Phe(4-COOH)]SCG-NH2; not fully specified) [compound 253] | ND (the inhibitory activity was less than 30% at the maximum concentration evaluated) | C (showed less than 30% of inhibitory activity in 0.2 nM-addition zone and showed 30% or more of inhibitory activity in 2 nM-addition zone) | – | – | –
254 (ERVYVSR[3Pal(6-Ph)]S[hTyr]V[Bip]Y[Phe(4-COOH)][Phe(4-COOH)]SCG-NH2; not fully specified) [compound 254] | ND (the inhibitory activity was less than 30% at the maximum concentration evaluated) | C (showed less than 30% of inhibitory activity in 0.2 nM-addition zone and showed 30% or more of inhibitory activity in 2 nM-addition zone) | – | – | –
256 (ERV[Phe(4-F)]VSR[3Pal(6-Ph)]SYV[Bip][4Pal][Phe(4-COOH)][Phe(4-COOH)]SCG-NH2; not fully specified) [compound 256] | ND (the inhibitory activity was less than 30% at the maximum concentration evaluated) | C (showed less than 30% of inhibitory activity in 0.2 nM-addition zone and showed 30% or more of inhibitory activity in 2 nM-addition zone) | – | – | –
257 (TRVYVDR[3Pal(6-Ph)]SYV[Bip]Y[Phe(4-COOH)][Phe(4-COOH)]SCG-NH2; not fully specified) [compound 257] | E (showed less than 30% of inhibitory activity in 100 nM-addition zone and showed 30% or more of inhibitory activity in 1,000 nM-addition zone) | C (showed less than 30% of inhibitory activity in 0.2 nM-addition zone and showed 30% or more of inhibitory activity in 2 nM-addition zone) | – | – | –
263 (ERVYV[KCOpipzaa]R[3Pal(6-Ph)]SYV[Bip]Y[Phe(4-COOH)][Phe(4-COOH)]SCG-NH2; not fully specified) [compound 263] | E (showed less than 30% of inhibitory activity in 100 nM-addition zone and showed 30% or more of inhibitory activity in 1,000 nM-addition zone) | C (showed less than 30% of inhibitory activity in 0.2 nM-addition zone and showed 30% or more of inhibitory activity in 2 nM-addition zone) | – | – | –
266 (QRVYVDR[3Pal(6-Ph)]SYV[Bip][4Pal][Phe(4-COOH)][Phe(4-COOH)]SCG-NH2; not fully specified) [compound 266] | – | – | ND (the inhibitory activity was less than 30% at the maximum concentration evaluated) | C (showed less than 30% of inhibitory activity in 0.2 nM-addition zone and showed 30% or more of inhibitory activity in 2 nM-addition zone) | –
270 (QRV[F4aao]VDR[3Pal(6-Ph)]SYV[Bip][4Pal][Phe(4-COOH)][Phe(4-COOH)]SCG-NH2; not fully specified) [compound 270] | – | – | ND (the inhibitory activity was less than 30% at the maximum concentration evaluated) | C (showed less than 30% of inhibitory activity in 0.2 nM-addition zone and showed 30% or more of inhibitory activity in 2 nM-addition zone) | –
271 (ERV[Phe(4-COOH)][Abu(4,4,4-F3)]DR[3Pal(6-Ph)]SYV[Bip][4Pal][Phe(4-COOH)][Phe(4-COOH)]SCG-NH2) [compound 271] | – | – | ND (the inhibitory activity was less than 30% at the maximum concentration evaluated) | C (showed less than 30% of inhibitory activity in 0.2 nM-addition zone and showed 30% or more of inhibitory activity in 2 nM-addition zone) | –
272 (ERV[Phe(4-COOH)][Gly(cPr)]DR[3Pal(6-Ph)]SYV[Bip][4Pal][Phe(4-COOH)][Phe(4-COOH)]SCG-NH2; not fully specified (N-terminus, bridges)) [compound 272] | – | – | ND (the inhibitory activity was less than 30% at the maximum concentration evaluated) | C (showed less than 30% of inhibitory activity in 0.2 nM-addition zone and showed 30% or more of inhibitory activity in 2 nM-addition zone) | –
273 (ERV[Phe(4-COOH)]VDR[3Pal(6-Ph)][KCOpipzaa]YV[Bip][4Pal][Phe(4-COOH)][Phe(4-COOH)]SCG-NH2; not fully specified) [compound 273] | – | – | ND (the inhibitory activity was less than 30% at the maximum concentration evaluated) | C (showed less than 30% of inhibitory activity in 0.2 nM-addition zone and showed 30% or more of inhibitory activity in 2 nM-addition zone) | –
275 (ERV[Phe(4-COOH)]VDR[3Pal(6-Ph)][KCOpipzaa]Y[Hyp][Bip]Y[Phe(4-COOH)][Phe(4-COOH)]SCG-NH2; not fully specified) [compound 275] | – | – | – | B (showed less than 30% of inhibitory activity in 0.02 nM-addition zone and showed 30% or more of inhibitory activity in 0.2 nM-addition zone) | G (showed less than 30% of inhibitory activity in 100 nM-addition zone and showed 30% or more of inhibitory activity in 300 nM-addition zone)
276 (ERV[Phe(4-COOH)]V[KCOpipzaa]R[3Pal(6-Ph)][KCOpipzaa]Y[Hyp][Bip][4Pal][Phe(4-COOH)][Phe(4-COOH)]SCG-NH2; not fully specified) [compound 276] | – | – | – | B (showed less than 30% of inhibitory activity in 0.02 nM-addition zone and showed 30% or more of inhibitory activity in 0.2 nM-addition zone) | ND (the inhibitory activity was less than 30% at the maximum concentration evaluated)
278 (E[KCOpipzaa]V[Phe(4-COOH)]V[KCOpipzaa]R[3Pal(6-Ph)][KCOpipzaa]Y[Hyp][Bip][4Pal][Phe(4-COOH)][Phe(4-COOH)]SCG-NH2; not fully specified) [compound 278] | – | – | – | C (showed less than 30% of inhibitory activity in 0.2 nM-addition zone and showed 30% or more of inhibitory activity in 2 nM-addition zone) | ND (the inhibitory activity was less than 30% at the maximum concentration evaluated)
280 (ERV[Phe(4-COOH)]VDR[3Pal(6-Ph)][KCOpipzaa]Y[Hyp][Bip][4Pal][Phe(4-COOH)][Phe(4-COOH)]SC[βAla]) [compound 280] | – | – | – | B (showed less than 30% of inhibitory activity in 0.02 nM-addition zone and showed 30% or more of inhibitory activity in 0.2 nM-addition zone) | H (showed less than 30% of inhibitory activity in 300 nM-addition zone and showed 30% or more of inhibitory activity in 1,000 nM-addition zone)
281 (ERV[Phe(4-COOH)]VDR[3Pal(6-Ph)][KCOpipzaa]YV[Bip][4Pal][Phe(4-COOH)][Phe(4-COOH)]SC[βAla]) [compound 281] | – | – | – | C (showed less than 30% of inhibitory activity in 0.2 nM-addition zone and showed 30% or more of inhibitory activity in 2 nM-addition zone) | ND (the inhibitory activity was less than 30% at the maximum concentration evaluated)
283 (ERV[Phe(4-COOH)]V[KCOpipzaa]R[3Pal(6-Ph)][KCOpipzaa]Y[Hyp][Bip][4Pal][Phe(4-COOH)][Phe(4-COOH)]SC[βAla]) [compound 283] | – | – | – | B (showed less than 30% of inhibitory activity in 0.02 nM-addition zone and showed 30% or more of inhibitory activity in 0.2 nM-addition zone) | H (showed less than 30% of inhibitory activity in 300 nM-addition zone and showed 30% or more of inhibitory activity in 1,000 nM-addition zone)
284 (ERV[Phe(4-COOH)]V[KCOpipzaa]R[3Pal(6-Ph)][KCOpipzaa]YV[Bip][4Pal][Phe(4-COOH)][Phe(4-COOH)]SC[βAla]) [compound 284] | – | – | – | C (showed less than 30% of inhibitory activity in 0.2 nM-addition zone and showed 30% or more of inhibitory activity in 2 nM-addition zone) | ND (the inhibitory activity was less than 30% at the maximum concentration evaluated)
285 (E[KCOpipzaa]V[Phe(4-COOH)]V[KCOpipzaa]R[3Pal(6-Ph)][KCOpipzaa]Y[Hyp][Bip][4Pal][Phe(4-COOH)][Phe(4-COOH)]SC[βAla]) [compound 285] | – | – | – | C (showed less than 30% of inhibitory activity in 0.2 nM-addition zone and showed 30% or more of inhibitory activity in 2 nM-addition zone) | H (showed less than 30% of inhibitory activity in 300 nM-addition zone and showed 30% or more of inhibitory activity in 1,000 nM-addition zone)
286 (ERV[Phe(4-COOH)]VDR[3Pal(6-Ph)][KCOpipzaa]Y[Hyp][Bip][4Pal][Phe(4-COOH)][Phe(4-COOH)]SC[βAla][dE]-OH; not fully specified (N-terminus, bridges); also: cyclic peptide, ring not given here) [compound 286] | – | – | – | B (showed less than 30% of inhibitory activity in 0.02 nM-addition zone and showed 30% or more of inhibitory activity in 0.2 nM-addition zone) | G (showed less than 30% of inhibitory activity in 100 nM-addition zone and showed 30% or more of inhibitory activity in 300 nM-addition zone)
